Affinity increase and Kd data for 32 molecules are collected here from patent US20240279318A1 (NANJING LEGEND BIOTECH, published 2024).

The chains are these.
B1: LD97H (scFv)
scFv: QSALTQPRSVSGSPGQSVTISCAGTSSDVGSENYVSWYQQHPGKAPKLMIYQVNKRASGVPDRFSGSKSGNTASLTISGLQAEDEADYYCASYRSSHHNIVFGGGTKLTVLGGGGSGGGGSGGGGSEVQLVESGGGLVQPGGSLRLSCAASGFTFSSYAMSWVRQAPGKGLEWVSTINSGTGSPYYADSVKGRFTISRDNSKNTLYLQMNSLRAEDTAVYYCAKNFFDGSWFLGPPAMDYWGQGTLVTVSSHHHHHH
notes: AS170036 VL1VH1 scFv mutein
B2: LH98Q (scFv)
scFv: B1 scFv with H97D, H98Q
notes: AS170036 VL1VH1 scFv mutein; also called AS170036 VL1VH1-VLH98Q
B3: LY93F (scFv)
scFv: B1 scFv with Y93F, H97D
notes: AS170036 VL1VH1 scFv mutein
B4: LY34W (scFv)
scFv: B1 scFv with Y34W, H97D
notes: AS170036 VL1VH1 scFv mutein
B5: LD97N (scFv)
scFv: B1 scFv with H97N
notes: AS170036 VL1VH1 scFv mutein
B6: LH98L (scFv)
scFv: B1 scFv with H97D, H98L
notes: AS170036 VL1VH1 scFv mutein
B7: LH98F (scFv)
scFv: B1 scFv with H97D, H98F
notes: AS170036 VL1VH1 scFv mutein; also called AS170036 VL1VH1-VLH98F
B8: LY34H (scFv)
scFv: B1 scFv with Y34H, H97D
notes: AS170036 VL1VH1 scFv mutein
B9: LE32W (scFv)
scFv: B1 scFv with E32W, H97D
notes: AS170036 VL1VH1 scFv mutein; also called AS170036 VL1VH1-VLE32W
B10: LY93M (scFv)
scFv: B1 scFv with Y93M, H97D
notes: AS170036 VL1VH1 scFv mutein
B11: LH98S (scFv)
scFv: B1 scFv with H97D, H98S
notes: AS170036 VL1VH1 scFv mutein
B12: LH98G (scFv)
scFv: B1 scFv with H97D, H98G
notes: AS170036 VL1VH1 scFv mutein
B13: LE32Y (scFv)
scFv: B1 scFv with E32Y, H97D
notes: AS170036 VL1VH1 scFv mutein
B14: LH98P (scFv)
scFv: B1 scFv with H97D, H98P
notes: AS170036 VL1VH1 scFv mutein; also called AS170036 VL1VH1-VLH98P
B15: LD97K (scFv)
scFv: B1 scFv with H97K
notes: AS170036 VL1VH1 scFv mutein
B16: LH98M (scFv)
scFv: B1 scFv with H97D, H98M
notes: AS170036 VL1VH1 scFv mutein
B17: LH98V (scFv)
scFv: B1 scFv with H97D, H98V
notes: AS170036 VL1VH1 scFv mutein; also called AS170036 VL1VH1-VLH98V
B18: LE32S (scFv)
scFv: B1 scFv with E32S, H97D
notes: AS170036 VL1VH1 scFv mutein
B19: LH98I (scFv)
scFv: B1 scFv with H97D, H98I
notes: AS170036 VL1VH1 scFv mutein; also called AS170036 VL1VH1-VLH98I
B20: LE32G (scFv)
scFv: B1 scFv with E32G, H97D
notes: AS170036 VL1VH1 scFv mutein
B21: LY93L (scFv)
scFv: B1 scFv with Y93L, H97D
notes: AS170036 VL1VH1 scFv mutein
B22: LH98N (scFv)
scFv: B1 scFv with H97D, H98N
notes: AS170036 VL1VH1 scFv mutein
B23: LH98Y (scFv)
scFv: B1 scFv with H97D, H98Y
notes: AS170036 VL1VH1 scFv mutein
B24: LH98R (scFv)
scFv: B1 scFv with H97D, H98R
notes: AS170036 VL1VH1 scFv mutein
B25: LD97R (scFv)
scFv: B1 scFv with H97R
notes: AS170036 VL1VH1 scFv mutein
B26: LH98W (scFv)
scFv: B1 scFv with H97D, H98W
notes: AS170036 VL1VH1 scFv mutein
B27: LY93I (scFv)
scFv: B1 scFv with Y93I, H97D
notes: AS170036 VL1VH1 scFv mutein
B28: LH98T (scFv)
scFv: B1 scFv with H97D, H98T
notes: AS170036 VL1VH1 scFv mutein; also called AS170036 VL1VH1-VLH98T
B29: LH98A (scFv)
scFv: B1 scFv with H97D, H98A
notes: AS170036 VL1VH1 scFv mutein; also called AS170036 VL1VH1-VLH98A
B30: LD97T (scFv)
scFv: B1 scFv with H97T
notes: AS170036 VL1VH1 scFv mutein
B31: LD97S (scFv)
scFv: B1 scFv with H97S
notes: AS170036 VL1VH1 scFv mutein
B32: LE32D (scFv)
scFv: B1 scFv with E32D, H97D
notes: AS170036 VL1VH1 scFv mutein

Where a chain is given by its changes, count along the chain named.

The target in one test is T1, AFP158/HLA-A*02:01 complex (human).
T1 construct: flowed over the chip in SPR; also called AFP158 pro
The test can be described thus: SPR, KD ratio to AS170036 VL1VH1.
Description: (§1) The experiment was carried out as follows. The crude scFv protein were captured onto the sensorchip. Different concentrations (320, 160, 40 nM) of AFP158/HLA-A*02:01 complex flowed over the sensorchip surface, and were allowed to bind the antibody fragment for 100 s followed by injection of the running buffer to allow dissociation of the complex. On-rate (kd) and off-rate (kd) were calculated based on association and dissociation curve, and were used to estimate the equilibrium dissociation constant (KD).
Turning to B1, the Affinity increase stood at 0.6 fold.

Consider B2, for which the Affinity increase turned out to be 3.3 fold.

As to B3, the Affinity increase worked out at 1.8 fold.

B4: the Affinity increase worked out at 0.6 fold.

With B5, the Affinity increase was found to be 1 fold.

As to B6, the Affinity increase turned out to be 1.2 fold.

Consider B7, for which the Affinity increase was found to be 3.3 fold.

As for B8, the Affinity increase is 0.5 fold.

For B9, the Affinity increase was determined as 2.4 fold.

For B10, the Affinity increase worked out at 1.1 fold.

For the molecule B11, the Affinity increase is 1.4 fold.

As for B12, the Affinity increase is 0.9 fold.

On to B13, for which the Affinity increase was 0.6 fold.

B14: the Affinity increase was found to be 3.5 fold.

B15: the Affinity increase was determined as 0.6 fold.

Turning to B16, the Affinity increase is 1.8 fold.

For the molecule B17, the Affinity increase was found to be 3.2 fold.

B18: the Affinity increase was 0.5 fold.

Take B19: the Affinity increase stood at 3.1 fold.

With B20, the Affinity increase came to 0.7 fold.

With B21, the Affinity increase came out at 1.3 fold.

With B22, the Affinity increase turned out to be 1.5 fold.

On to B23, for which the Affinity increase was determined as 1.6 fold.

With B24, the Affinity increase was found to be 1.1 fold.

As for B25, the Affinity increase was 0.5 fold.

With B26, the Affinity increase stood at 1.2 fold.

Consider B27, for which the Affinity increase is 0.6 fold.

On to B28, for which the Affinity increase came to 2.9 fold.

For B29, the Affinity increase was determined as 2.3 fold.

As to B30, the Affinity increase is 0.7 fold.

With B31, the Affinity increase came out at 0.6 fold.

Consider B32, for which the Affinity increase amounted to 1.3 fold.

Another test has as its target T1, AFP158/HLA-A*02:01 complex. The test can be described thus: SPR, scFv captured, pMHC in flow.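 Also: complex injected at several concentrations over crude scFv, association then running-buffer dissociation, KD estimated from kinetic on- and off-rate constants.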 Background: Surface plasmon resonance follows binding to a sensor surface in real time, without labels.
Description: as §1
In the case of B1, the Kd – broadly, the equilibrium constant for the complex coming apart – was found to be 420 nM.

In turn, B2 came in with a Kd of 75 nM. This Kd is about 5.6-fold lower than that of the molecule before.

Molecule B3 displayed a Kd of 140 nM.

On to B4, for which the Kd stood at 410 nM.

Turning to B5, the Kd is 240 nM.

For the molecule B6, the Kd is 200 nM.

In turn, B7 displayed a Kd of 74 nM. This Kd lies about 2.7-fold lower than the previous one.

For B8, the Kd worked out at 540 nM.

Take B9: the affinity, expressed as Kd, was 100 nM.

For the molecule B10, binding was put at a Kd of 230 nM.

For B11, the Kd came out at 180 nM.

As for B12, the Kd is 280 nM. Against the preceding molecule, the Kd is about 1.6-fold higher.

In turn, B13 gave a Kd of 430 nM.

The molecule B14 came in with a Kd of 70 nM.

As to B15, the Kd turned out to be 410 nM.

In turn, B16 displayed a Kd of 140 nM.

Molecule B17 showed a Kd of 78 nM.

B18 showed a Kd of 500 nM.

With B19, the Kd was found to be 78 nM.

B20: binding was put at a Kd of 350 nM.

As for B21, the Kd amounted to 180 nM. This Kd lies about 1.9-fold lower than the previous one.

Take B22: binding was characterised by a dissociation constant (Kd) of 160 nM.

Take B23: binding was put at a Kd of 160 nM.

As to B24, the Kd came to 220 nM.

B25 yielded a Kd of 520 nM. This Kd lies about 2.4-fold higher than the previous one.

With B26, binding was put at a Kd of 200 nM.

Turning to B27, the Kd is 440 nM.

As to B28, the Kd came to 84 nM.

Molecule B29 displayed a Kd of 110 nM.

As for B30, the affinity, expressed as Kd, was 360 nM.

B31: binding was characterised by a dissociation constant (Kd) of 420 nM. The Kd values of the last two molecules are within 1.5-fold of each other.

Take B32: binding was characterised by a dissociation constant (Kd) of 190 nM.

The target of a further test is T1, AFP158/HLA-A*02:01 complex. The test can be described thus: SPR, KD ratio to AS170036 VL1VH1.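 Also: crude scFv captured on a sensor chip, peptide–HLA complex passed over at several concentrations, association then buffer dissociation, KD derived from on- and off-rates.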 This is another data set of the same source.
Description: as §1
On to B1, for which the Affinity increase was 0.6 fold.

On to B2, for which the Affinity increase was determined as 3.3 fold.

With B3, the Affinity increase came out at 1.8 fold.

Turning to B4, the Affinity increase was 0.6 fold.

As for B5, the Affinity increase is 1 fold.

With B6, the Affinity increase is 1.2 fold.

In the case of B7, the Affinity increase turned out to be 3.3 fold.

For the molecule B8, the Affinity increase is 0.5 fold.

On to B9, for which the Affinity increase turned out to be 2.4 fold.

In the case of B10, the Affinity increase was 1.1 fold.

On to B11, for which the Affinity increase came out at 1.4 fold.

For B12, the Affinity increase was determined as 0.9 fold.

With B13, the Affinity increase amounted to 0.6 fold.

Consider B14, for which the Affinity increase was 3.5 fold.

For B15, the Affinity increase was found to be 0.6 fold.

With B16, the Affinity increase was 1.8 fold.

In the case of B17, the Affinity increase was found to be 3.2 fold.

As to B18, the Affinity increase was 0.5 fold.

On to B19, for which the Affinity increase came to 3.1 fold.

B20: the Affinity increase worked out at 0.7 fold.

For B21, the Affinity increase was determined as 1.3 fold.

Regarding B22, the Affinity increase is 1.5 fold.

For B23, the Affinity increase was found to be 1.6 fold.

In the case of B24, the Affinity increase is 1.1 fold.

With B25, the Affinity increase turned out to be 0.5 fold.

Take B26: the Affinity increase came out at 1.2 fold.

With B27, the Affinity increase was found to be 0.6 fold.

Take B28: the Affinity increase came to 2.9 fold.

Turning to B29, the Affinity increase is 2.3 fold.

B30: the Affinity increase is 0.7 fold.

Turning to B31, the Affinity increase was found to be 0.6 fold.

For B32, the Affinity increase is 1.3 fold.

In the next test the target is T1, AFP158/HLA-A*02:01 complex. The test can be described thus: SPR, scFv captured, pMHC in flow.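 Also: complex injected at several concentrations over crude scFv, association then running-buffer dissociation, KD estimated from kinetic on- and off-rate constants.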 The source holds these as a separate data set.
Description: as §1
As for B1, the Kd was 420 nM.

On to B2, for which the affinity, expressed as Kd, was 75 nM.

As for B3, the Kd came out at 140 nM.

Molecule B4 showed a Kd of 410 nM.

The molecule B5 displayed a Kd of 240 nM.

As to B6, the affinity, expressed as Kd, was 200 nM.

With B7, binding was put at a Kd of 74 nM. Compared with the last molecule, the Kd is about 2.7-fold lower.

Molecule B8 displayed a Kd of 540 nM.

Take B9: the affinity, expressed as Kd, was 100 nM.

Take B10: the Kd came out at 230 nM.

Regarding B11, the dissociation constant (Kd) came out at 180 nM.

The molecule B12 showed a Kd of 280 nM.

Consider B13, for which the Kd stood at 430 nM.

B14 yielded a Kd of 70 nM.

Molecule B15 came in with a Kd of 410 nM.

In turn, B16 displayed a Kd of 140 nM.

The molecule B17 returned a Kd of 78 nM.

Take B18: the Kd is 500 nM.

B19 showed a Kd of 78 nM. Compared with the last molecule, the Kd is about 6.4-fold lower.

B20: binding was characterised by a dissociation constant (Kd) of 350 nM.

In the case of B21, the Kd came out at 180 nM.

B22 displayed a Kd of 160 nM.

The molecule B23 yielded a Kd of 160 nM. That is a sub-micromolar value.

As for B24, binding was put at a Kd of 220 nM. The Kd values of the last two molecules are within 1.5-fold of each other.

In the case of B25, binding was put at a Kd of 520 nM. This Kd is about 2.4-fold higher than that of the molecule before.

With B26, the Kd is 200 nM.

Molecule B27 had a Kd of 440 nM.

For B28, binding was put at a Kd of 84 nM. This Kd lies about 5.2-fold lower than the previous one.

For the molecule B29, the dissociation constant Kd was 110 nM.

In the case of B30, the Kd turned out to be 360 nM.

Consider B31, for which the Kd is 420 nM.

In turn, B32 came in with a Kd of 190 nM.
